Experimental data reported in paper doi:10.1101/2020.12.08.416511 (bioRxiv, 2020).

Molecular target: human β-cardiac myosin subfragment 1 heavy chain (amino acids 1-841) (human, UniProt P12883 1-841)
Assay: pull-down

Chain of human β-cardiac myosin subfragment 1 heavy chain (amino acids 1-841) (P12883 1-841): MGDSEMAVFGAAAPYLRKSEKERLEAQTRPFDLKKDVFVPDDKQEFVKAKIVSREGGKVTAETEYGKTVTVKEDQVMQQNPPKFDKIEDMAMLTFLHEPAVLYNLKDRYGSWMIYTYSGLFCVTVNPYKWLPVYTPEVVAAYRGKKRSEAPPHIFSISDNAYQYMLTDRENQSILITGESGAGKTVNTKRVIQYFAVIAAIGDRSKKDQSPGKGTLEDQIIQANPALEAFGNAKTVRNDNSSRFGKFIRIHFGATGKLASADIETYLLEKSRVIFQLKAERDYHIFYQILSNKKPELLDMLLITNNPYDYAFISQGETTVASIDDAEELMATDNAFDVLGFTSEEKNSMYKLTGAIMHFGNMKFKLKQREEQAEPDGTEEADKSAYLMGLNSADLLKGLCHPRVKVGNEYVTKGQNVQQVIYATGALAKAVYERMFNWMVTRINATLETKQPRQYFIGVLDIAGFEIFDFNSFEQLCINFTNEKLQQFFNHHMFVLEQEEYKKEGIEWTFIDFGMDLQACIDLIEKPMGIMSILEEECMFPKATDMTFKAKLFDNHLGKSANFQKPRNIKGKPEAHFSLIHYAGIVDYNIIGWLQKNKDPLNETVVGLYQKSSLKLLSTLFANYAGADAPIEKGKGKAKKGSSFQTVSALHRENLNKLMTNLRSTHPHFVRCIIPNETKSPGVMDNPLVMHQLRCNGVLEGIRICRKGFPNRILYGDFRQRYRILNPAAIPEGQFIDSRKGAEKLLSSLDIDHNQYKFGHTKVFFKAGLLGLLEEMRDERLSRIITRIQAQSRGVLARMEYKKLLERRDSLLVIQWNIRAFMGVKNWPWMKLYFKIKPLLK

B1: Alexa 488-labeled human ventricular cardiac regulatory light chain (V105C) (natural protein)
chain: MAPKKAKKRAGGANSNVFSMFEQTQIQEFKEAFTIMDQNRDGFIDKNDLRDTFAALGRVNVKNEEIDEMIKEAPGPINFTVFLTMFGEKLKGADPEETILNAFKCFDPEGKGVLKADYVREMLTTQAERFSKEEVDQMFAAFPPDVTGNLDYKNLVHIITHGEEKD
modifications: Alexa Fluor 488 C5 maleimide on the single reactive cysteine at position 105
stoichiometry N: 1 A488RLC per M2β-S1
